# Tested on: Cc1cn([C@H]2C[C@H](O)[C@@H](COP(=O)(O)OP(=O)(O)O[C@H]3O[C@H](C)[C@H](O)[C@H](N)[C@H]3O)O2)c(=O)[nH]c1=O
# Test: purified protein
# Conditions: 5 mM N10-formyl-THF, 50 mM HEPPS pH 8.0, 0.20 uM enzyme
substance,measurement,value
FdtF (Salmonella enterica),Km,100 ± 10 µM
same,kcat,15.5 ± 0.8 s⁻¹
same,kcat/Km,160000 ± 18000 M⁻¹ s⁻¹

# Source: PMC5581740
